Our source for the signal-to-background ratio values is publication PMC5751283, “A Split-Luciferase Reporter Recognizing GFP and mCherry Tags to Facilitate Studies of Protein–Protein Interactions” (International Journal of Molecular Sciences, 2017).

The data set concerns the molecule itself. Put plainly: split reporter (BiFC, NanoBiT); GFP- and/or mCherry-tagged targets expressed in Leishmania tarentolae extract (pairs co-expressed, self-associating proteins alone), serially diluted three-fold, mixed 1:1:1 with two split-nanoLuc fusions of anti-GFP or anti-mCherry nanobodies (SLN pairs GL/GS, LC/GS, CL/CS or LC/CFRS, also made in LTE); 10 min at 23 °C; buffer A (25 mM HEPES pH 7.4, 50 mM NaCl); background: ….

B1: mCherry–SOX9 (natural protein, UniProt P48436 1-509, looked up)
chain: MNLLDPFMKMTDEQEKGLSGAPSPTMSEDSAGSPCPSGSGSDTENTRPQENTFPKGEPDLKKESEEDKFPVCIREAVSQVLKGYDWTLVPMPVRVNGSSKNKPHVKRPMNAFMVWAQAARRKLADQYPHLHNAELSKTLGKLWRLLNESEKRPFVEEAERLRVQHKKDHPDYKYQPRRRKSVKNGQAEAEEATEQTHISPNAIFKALQADSPHSSSGMSEVHSPGEHSGQSQGPPTPPTTPKTDVQPGKADLKREGRPLPEGGRQPPIDFRDVDIGELSSDVISNIETFDVNEFDQYLPPNGHPGVPATHGQVTYTGSYGISSTAATPASAGHVWMSKQQAPPPPPQQPPQAPPAPQAPPQPQAAPPQQPAAPPQQPQAHTLTTLSSEPGQSQRTHIKTEQLSPSHYSEQQQHSPQQIAYSPFNLPHYSPSYPPITRSQYDYTDHQNSSSYYSHAAGQGTGLYSTFTYMNPAQRPMYTPIADTSGVPSIPQTHSPQHWEQPVYTQLTRP
notes: SOX9; also called SOX9–mCherry; mCherry homodimer; source: Leishmania tarentolae cell-free extract (LTE), not purified
Consider B1, for which the signal-to-background ratio was found to be 5.
